# According to US8143228B2, “Agents capable of downregulating an MSF-A dependent HIF-1α and use thereof in cancer treatment” (Medical Research Fund of Tel Aviv Sourasky Medical Center, priority 2004, dated 2012):
# B1: MSF-A: myeloid/lymphoid leukemia septin-like fusion protein A (SEQ ID NO:3), over-expressed from the p3xFlag-MSF-A vector (protein, listed as Homo sapiens)
# chain: MKKSYSGGTRTSSGRLRRLGDSSGPALKRSFEVEEVETPNSTPPRRVQTPLLRATVASSTQKFQDLGVKNSEPSARHVDSLSQRSPKASLRRVELSGPKAAEPVSRRTELSIDISSKQVENAGAIGPSRFGLKRAEVLGHKTPEPAPRRTEITIVKPQESAHRRMEPPASKVPEVPTAPATDAAPKRVEIQMPKPAEAPTAPSPAQTLENSEPAPVSQLQSRLEPKPQPPVAEATPRSQEATEAAPSCVGDMADTPRDAGLKQAPASRNEKAPVDFGYVGIDSILEQMRRKAMKQGFEFNIMVVGQSGLGKSTLINTLFKSKISRKSVQPTSEERIPKTIEIKSITHDIEEKGVRMKLTVIDTPGFGDHINNENCWQPIMKFINDQYEKYLQEEVNINRKKRIPDTRVHCCLYFIPATGHSLRPLDIEFMKRLSKVVNIVPVIAKADTLTLEERVHFKQRITADLLSNGIDVYPQKEFDEDSEDRLVNEKFREMIPFAVVGSDHEYQVNGKRILGRKTKWGTIEVENTTHCEFAYLRDLLIRTHMQNIKDITSSIHFEAYRVKRLNEGSSAMANGVEEKEPEAPEM
# modifications: 3xFlag tag
# Tests used:
# HIF-1α protein = biological target: T1, HIF-1α protein (Homo sapiens, UniProt Q16665); test: Co-immunoprecipitation / immunoblotting with HIF-1α in transfected HEK 293 cells; type: binding; conditions: transient transfection
# T1 construct: expressed in transfected cells; host or cells: HEK 293
# Method: FIGS. 9a-c are Western blot analyses of FLAG (MSF-A; FIGS. 9a and b) and HIF-1α (FIG. 9c) depicting the interaction between HIF-1α and the WT or deleted forms of MSF-A. HEK 293 cells were transiently co-transfected with expression vector encoding Flag-MSF-A (WT; p3xFlag-MSF-A), Flag-ΔG (AG; p3xFlag-ΔG-MSF-A), Flag-ΔN (ΔN; p3xFlag-ΔN-MSF-A) or empty vector (EV; p3xFlag-cmv-25). After 48 hours, the cells were lysed, subjected for immunoprecipitation (IP) using HIF-1α antibody and then immunoblotted (IB) with HIF-1α or Flag antibodies. FIG. 9a—whole cell extracts (WCE) subjected to IB with the Flag antibody (MSF-A); FIG. 9b—IP prepared by the HIF-1α antibody were subjected to IB with the Flag antibody (MSF-A); FIG. 9c—IP prepared by the HIF-1α antibody were subjected to IB with the HIF-1α antibody.
# Immunoblotting—Proteins (30-60 μg/lane) from WCEs were resolved by 7.5% SDS-PAGE, electro-blotted to nitrocellulose membranes and incubated with the indicated primary antibodies, followed by horseradish peroxidase-conjugated secondary antiserum (Amersham Biosciences, Piscataway, N.J.). Immunoreactivity was visualized by Amersham enhanced chemiluminescence reagent (Amersham Biosciences, Piscataway, N.J.). For sequential blotting with additional antibodies, the membranes were stripped from the first primary antibody using a restore Western blot stripping buffer (Pierce, Rockford, Ill.) and were re-probed using the second primary antibody as indicated.
# Immunoprecipitation—Cells were washed twice with ice-cold PBS, lysed in 20 mM Na-HEPES, pH 7.5, 0.5% Nonidet P-40, 0.1M NaCl, 2 mM EDTA, 10% Glycerol and 2 mM DTT supplemented with protease and phosphatase inhibitors, and were subjected to immunoprecipitation using anti-HIF-1α antibody and protein G-agarose beads (Pierce, Ill.) according to the manufacturer's instructions.
# To confirm the interaction between the HIF-1α and the MSF-A proteins, HEK 293 cells were transiently co-transfected with the p3xFlag-MSF-A and the pcDNA3.1-HIF-1α vectors, and were grown for 24 hours under normoxic conditions (i.e., conditions of 20% oxygen), following which whole cell extracts (WCE) were subjected to co-immunoprecipitation (IP) using anti-FLAG or anti-HIF-1α antibodies. Following IP, the proteins were subjected to SDS-PAGE and immunoblotting (IB) using the counterpart antibody. As is shown in FIGS. 3a-d, following transfection with both expression vectors (i.e., pcDNA3.1-HIF-1α and p3xFlag-MSF-A) immunoprecipitates generated using either the anti-HIF-1α antibody or the anti-Flag antibody included the reciprocal proteins, i.e., the Flag-MSF-A or HIF-1α proteins, respectively.
# PC-3 cells = test: Cell proliferation assay with XTT reagent; type: cell-based; conditions: PC-3-MSF-A vs PC-3-Neo cells, normoxia and hypoxia
# Method: FIG. 13 is a graph depicting the effect of MSF-A over-expression on cell proliferation. PC-3-Neo and PC-3-MSF-A cells were grown under normoxic and hypoxic conditions for the indicated time and then analyzed for proliferation using XTT assay. Proliferation was expressed as increase in % of the initial O.D. measured on the next day of seeding which was considered 100%. Growth media were not changed until the end of the experiment.
# Cell proliferation assay with XTT reagent—For cell proliferation assay, PC-3-Neo and PC-3-MSF-A cells were seeded in 96 well-plates (1000 cells/well in 200 μLI) using a 3-bis-(2-methoxy-4-nitro-5 sulfenyl)-(2H)-tetrazolium-5-carboxanilide (XTT) kit (Biological Industries Ltd. Kibbutz Beit Haemek, Israel). Wells filled with media served as a control. On the next day, the cells were cultured either under normoxic or hypoxic conditions. XTT reagent was added at days 0, 2, 4 and 6 following the manufacturer's instructions. The absorbance of the samples was measured using a microplate reader at a wavelength of 450 nm using Elisa reader 680 (Bio-rad, Hercules, Calif.). All experiments were performed in triplicate.
# HIF-1 target genes = test: Semi-quantitative RT-PCR of HIF-1 target genes; type: cell-based
# Method: FIGS. 12a-f are RT-PCR analyses depicting HIF-1α mediated activation of various genes in cells transfected with the expression vector alone (Neo) or the MSF-A expression vector (MSF-A). Total RNA was isolated from PC-3-Neo and PC-3-MSF-A cells grown under normoxic (lanes 1 and 2) and hypoxic (lanes 3 and 4) conditions. Semi-quantitative RT-PCR analysis was performed using VEGF, Glut-1, ET-1, CA-IX, HIF-1α and β-actin primers (SEQ ID NOs:4200-4211 as described under General Materials and Experimental Methods). Lane 1—Neo, lane 2—MSF-A, lane 3—Neo, lane 4—MSF-A, lane 5—water (negative control).
# Isolation and analysis of RNA—Total RNA was extracted from cells by using RNeasy Mini Kit (Qiagen Inc., Valencia, Calif.) according to the manufacturer's protocol. Total RNA from xenograft-derived tumors, which were frozen in liquid N2 immediately after dissection, was prepared using TRI REAGENT (Sigma-Aldrich Co., Saint Louis, Mo.) following the manufacturer's instructions. One μg total RNA was reverse transcribed into cDNA using Reverse-iT 1st Strand Synthesis Kit (ABgene, Epsom, United Kingdom) using anchored oligo dT as first strand primer. […] Semi-quantitative RT-PCR was performed using […] as an internal control to normalize gene expression for the PCR templates. […]
# T1 sequence (Q16665 whole entry): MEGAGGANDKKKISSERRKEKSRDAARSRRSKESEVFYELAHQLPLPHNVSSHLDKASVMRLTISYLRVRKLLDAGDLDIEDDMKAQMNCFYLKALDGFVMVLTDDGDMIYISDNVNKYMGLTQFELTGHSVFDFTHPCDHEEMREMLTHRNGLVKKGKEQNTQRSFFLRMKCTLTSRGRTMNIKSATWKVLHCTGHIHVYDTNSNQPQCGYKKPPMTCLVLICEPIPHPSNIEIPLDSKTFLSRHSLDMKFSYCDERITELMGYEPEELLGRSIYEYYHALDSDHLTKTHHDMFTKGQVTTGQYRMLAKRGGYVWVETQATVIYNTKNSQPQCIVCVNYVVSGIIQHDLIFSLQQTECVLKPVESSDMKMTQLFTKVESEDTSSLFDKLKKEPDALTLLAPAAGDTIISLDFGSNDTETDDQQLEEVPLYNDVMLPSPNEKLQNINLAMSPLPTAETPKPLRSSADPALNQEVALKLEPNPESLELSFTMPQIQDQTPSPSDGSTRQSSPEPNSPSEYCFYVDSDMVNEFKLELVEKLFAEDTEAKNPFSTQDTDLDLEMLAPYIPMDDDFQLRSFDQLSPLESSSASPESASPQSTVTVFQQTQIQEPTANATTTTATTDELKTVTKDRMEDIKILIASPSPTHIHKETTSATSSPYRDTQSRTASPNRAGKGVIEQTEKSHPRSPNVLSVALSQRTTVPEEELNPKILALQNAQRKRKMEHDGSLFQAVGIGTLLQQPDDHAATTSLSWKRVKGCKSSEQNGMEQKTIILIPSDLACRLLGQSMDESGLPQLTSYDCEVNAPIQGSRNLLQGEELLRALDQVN
molecule,measurement,setting,value
B1,association with HIF-1α protein (co-immunoprecipitation),HIF-1α protein,strong association
same,proliferation rate (XTT),PC-3 cells,higher
same,HIF-1α mRNA level,HIF-1 target genes; PC-3-MSF-A and PC-3-Neo cells,unchanged
same,VEGF mRNA levels,HIF-1 target genes; PC-3-MSF-A vs PC-3-Neo cells,significantly higher
